Experimental data published in the supplement of paper PMC12042874.
± gives the uncertainty stated by the source.

test: amyloid nucleation score (Sup35N fusion, yeast selection) (log enrichment); library NNK1; higher = more nucleation; inactive = no reads after selection
In short: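 Sup35N fusions to peptides of 20 random codons were expressed in psi-negative yeast, induced 24 hours with 100 μM copper sulfate, and grown 7 days at 30°C on medium lacking adenine and uracil. Input and output plasmid inserts were sequenced by Illumina. The nucleation score is the DiMSum log enrichment of output over input reads, centred on the mode score of non-aggregating sequences. Sequences with under 100 input reads were excluded.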

Substance	amyloid nucleation score
DSRRGYPMMSMMWW	-0.354 ± 0.39
VPLRTWLITWLGYNSHNWLC	-0.302 ± 0.76
YRMSRLFTVVGAPVGSSLNF	-1.58 ± 2.4
SSDRAYVFCTRNMEVREGSK	-0.835 ± 0.72
NCNSGSNDTGFWQMASRTGL	0.071 ± 0.4
KTRFMLVLKLKRDNDLKMRF	-0.288 ± 0.3
VTSLYQDVT	-2.31 ± 2.4
LMSEVRPAMLDSSVLRDCYD	inactive
QFIRILDQSKILYLCCFLDT	5.64 ± 0.061
LLFGTHVPIRRGRFDASMIY	0.58 ± 0.5
ESRLLYSFRWVGERAVPSAN	0.4 ± 0.58
YFPVGWLTLGISPCGVGDLF	-0.151 ± 0.43
ESFTPSRSTNVRI	-1.24 ± 0.94
IGTYGHRMELLIGSRCKSRT	-0.15 ± 0.22
TMYTVVPNHWNNISFRALSR	-0.909 ± 0.74
DLAWWMSCAHFMSMTRGLQR	0.595 ± 0.36
TWNVMYRIRF	2.04 ± 0.23
VVSRWLRVFNFFEAKDFILV	-1.74 ± 2.7
RICPKNCMSISVI	0.305 ± 0.29
LKTEPHIRLSPLETRPV	0.552 ± 0.77
GCAQRKVAPWNRGLRQ	-0.501 ± 0.62
DNGLGRRWARAKYKECRKAR	0.141 ± 0.27
IQESVMLVLVDGGVISARL	0.106 ± 0.3
YRHPVMTWEPSRDLSFVLCL	0.388 ± 0.84
DKPIV	-0.09 ± 0.88

Substance	amyloid nucleation score
VTSWDMS	0.016 ± 0.26
TWRLDIFGGRRGRVASRKKW	-0.076 ± 0.96
ICLMFLSGTIDYYLY	0.111 ± 0.84
APEVNRLTCSYRSDRLKTS	0.095 ± 0.83
IWALKVWLRLTYCHICFRVV	0.265 ± 0.58
QGSSSGITQFGMPTYLGIIC	0.61 ± 0.47
MFRALVCITVPILHKATNM	-0.689 ± 0.81
ITMWMPRILRVTITYDTRG	0.111 ± 1.2
HLWRVRLV	0.01 ± 0.61
NLFCRRMSSDWALKSELSNH	0.708 ± 0.36
HYKDSITVFFIFHIPIQMMM	4.25 ± 0.057
AFCIFCSRLAEIAHLAF	7.133 ± 0.046
SIGCIYRSSKSGDVSISY	-0.057 ± 0.37
RFFCSD	0.641 ± 0.97
GSKTRAKLSLGCPKFLDAKG	0.457 ± 0.73
SKLIHYTSFLDYASSGEWKW	2.81 ± 0.17
SVFWDLTSDWAKIGVKK	-1.03 ± 0.89
ATSDI	-0.076 ± 0.27
VFHAAVM	-0.192 ± 0.93
LWDLKIAGRLNLEGCRCGLW	2.1 ± 0.13
YRCAYFL	-0.25 ± 0.69
IRSQKRYLCSGSLLCKVSRR	1.38 ± 0.51
VCCSATISTIVFSYFYTGKR	7.506 ± 0.053
MLSII	-1.39 ± 1.7
CYVHEFMDEPSRSNGDGVWC	-0.512 ± 1.2

Substance	amyloid nucleation score
WFRSGDNLRIM	1.65 ± 0.55
IDSKFQPK	0.972 ± 0.84
SSNYMFVCRSKDLEVLLVGY	0.398 ± 0.51
GNDGENLMSWTIVWNFIVG	4.33 ± 0.062
RVCVFIN	inactive
PFIDNRFKLFRSDGTVRWVI	inactive
FNKVSAMDEAREYGVEVVAV	5.46 ± 0.073
SDFAYCRCNLSVYRGMILTQ	0.064 ± 0.25
RPCIWFGTTCFYCTVFN	5.76 ± 0.061
LYLEARGGRVSYHQLFFGER	2.45 ± 0.18
TPDHLWLWLFYLNCNTENYG	7.757 ± 0.046
YFGDAGAFGFFSGLG	0.192 ± 0.61
WNSRTSESC	2.97 ± 0.15
IMEMG	0.11 ± 0.53
LSIFVF	1.75 ± 0.25
QHIPGDCFYHCCQFHCAQKE	0.818 ± 0.77
YSYFSPDFRRSQHQGGVCPA	0.329 ± 0.53
GMSVNVWMYSSLGVFCLIYV	-0.107 ± 0.2
SLILG	0.083 ± 0.3
SYHRSSYYGLVNRMAFLVF	2.94 ± 0.11
QFKKVGPPLVKNLAQVRMRM	-0.033 ± 0.47
LCEHKSRLVEDAKGGET	-0.043 ± 0.47
MNIVSTRS	0.231 ± 0.22
CGDMWLTDSLHGMNCSLFRR	inactive
VIERFMAKRPGC	0.698 ± 0.68

Substance	amyloid nucleation score
FWLILFIVFIKYMNILFRTC	1.08 ± 0.27
YIAMYGARTPSCVVKPG	-0.832 ± 0.55
FRMGFISYQTQTLTSRVFSF	2.73 ± 0.19
FGLYVYLPEGRHACVALRTV	-0.89 ± 0.88
SYNGCRRFNRCDRVCRNSNT	2.35 ± 0.095
SALWRNFSALRSNWK	-0.325 ± 0.34
GQGALRVDCLVHRQVVSVVL	0.176 ± 0.62
RISNRCSCSCNFDQGGVRQP	0.394 ± 1.1
ICHGAEHNV	-0.735 ± 1.7
KISVSTVLSLLFGI	1.3 ± 0.76
WVLYSIILCERCNHKGTSDG	0.057 ± 0.53
DVIMEGFAMCVWSRVTALLE	0.492 ± 0.85
CSKRTTYYFPWFICELTRLV	-0.195 ± 0.6
HCVRI	1.4 ± 0.6
YARSSFEDIVVFRDRFG	5.47 ± 0.092
TRLLRVGRSNFSLNEHSDRI	-0.376 ± 0.9
MLGSGAANTCHLTTRAWDHR	0.183 ± 0.39
NRRVPLIHCYLMCGYTGTCW	0.249 ± 0.4
PCLVGIDMVTMVAESLCGSG	-0.958 ± 1.3
TGFVWWLFGCGWTLVDRMWF	-0.79 ± 0.69
LLSYFLRNPYMSNGTTGLHG	0.144 ± 0.79
DIVDARFTLTGFKFECVR	0.297 ± 0.28
DQITYVPIMNQMMWATLLTF	0.849 ± 0.59
HVFIIQRMSWGVLRLLVSCR	-0.548 ± 0.52
SRHSGGAYNIVTMVT	0.517 ± 0.33

Substance	amyloid nucleation score
GRTYDDYGHVIYRSWLPSLH	-0.274 ± 1.4
NDIYLDGNVFKF	-0.477 ± 0.37
IVCSGLCHIN	7.08 ± 0.071
NGVMESGNRRTLLRPTVVET	-0.016 ± 1.2
YAFGHFCTDADSFCGRCVIL	0.09 ± 0.76
RLLRYMRDIR	-0.814 ± 0.57
CHVIIVQRYFMSVTLSQCWW	0.489 ± 0.24
LEPNCVLSYTDSFVNQFVTL	0.119 ± 0.3
LHETFVCR	-0.267 ± 0.58
VSYMQSVVHCGPKARCKWRC	0.964 ± 0.67
RNFPTRCMCIQNYAKL	2.22 ± 0.17
VTMRLL	0.968 ± 0.63
YHTTFSNVPFKGHARNAQRG	0.172 ± 0.66
YVWAAIGVRLYSRHK	-0.002 ± 1.4
LSCIVW	-0.366 ± 0.57
SSTKG	0.956 ± 0.72
DGAYWELSY	-0.506 ± 0.27
PECQSGCMV	-0.163 ± 0.41
CTVLRRFIRYHTITVYMWL	0.257 ± 0.75
TFLITRMCYSTVQKKEVVFW	-0.189 ± 1.2
VFVHFVSQWDFEATWT	0.27 ± 0.71
LLMYSKWAFTDYGT	-0.147 ± 0.74
KDLLMKV	0.507 ± 0.64
QSNSTYYGGSSRSGEKFPLG	3.83 ± 0.083
FITYRGSKVRAFLSR	-1.46 ± 0.9

Substance	amyloid nucleation score
SFLDMSTKVEYESIWTSTVA	0.568 ± 0.45
EVISPFQLSSDVGGMSRLGV	0.73 ± 0.72
SVIRVLWKGYGTRN	-1.55 ± 1.4
TLSLNYRFNLKERFLVSGLI	-0.733 ± 0.38
DHLYLMV	1.04 ± 0.72
KRWYTCYVYVFRICMRVLCR	0.731 ± 0.38
FGEYSCGRREMPYCFLDYYL	0.356 ± 0.41
KAAGMGSCSYTMVNYTPDAG	1.39 ± 0.23
YCVKV	0.308 ± 0.62
LWNIIVSIKGRIVESLAPTY	-0.113 ± 0.51
IHTVTLNNHSSNGDCSSFNI	-0.453 ± 0.43
LWFLNRRLVKQSYG	0.606 ± 0.38
EGYYEPVIVI	0.66 ± 0.47
KESLLLTQCGYYMGSAKMVW	-1.03 ± 1.1
IVMQVLTQTVMWIFYLNGSH	-0.254 ± 0.42
ARWWVRLEYC	0.523 ± 0.29
RRLTILSTSPWCTPLELNSF	-0.282 ± 0.37
WRRNGNAGMSNQCWVRVKFK	0.775 ± 0.46
AQKCPALYRLMNMPEKEKVG	0.18 ± 0.43
VASYFGLVRNSNLDLYLHCR	-0.131 ± 0.23
TIAKST	-0.885 ± 0.86
VVCQVNIHLNGVCLHRCLEE	6.862 ± 0.059
RRNHNSRVVINVLMHVRCSI	1.95 ± 0.1
DKLDSLIRVLNRLDNL	-0.316 ± 0.4
EKDVAIFLDLGYFHCTRSST	1.97 ± 0.2

Substance	amyloid nucleation score
DDRVSQLAWGLCAVSYARLE	0.681 ± 0.54
LVRYLCVPSFGKAGYDGEGE	-0.86 ± 0.79
VYAYVSHLLIYVFSGRV	inactive
TMRLNQCPLNSFPTLFLYER	-0.602 ± 0.31
GAYYGRSSKELGNNEGTGTG	0.51 ± 0.52
LFALNCDCM	7.448 ± 0.053
NYSDLKRGHRLDSADGWDGI	-0.613 ± 1.1
CYLCSSSF	1.67 ± 0.24
LGFMTCSP	inactive
RTLHRLLSSINAKGDRYRLR	-0.935 ± 1.9
TQCCGS	-0.448 ± 1.7
AVMFVTCLIVSASGHLLYTL	1.39 ± 0.88
HFVRFRRAMSRHGRVAST	-0.979 ± 0.75
GFTFVLLLSLGLVGWCETVK	-0.511 ± 0.68
RQDAVNNNTCNSISFNP	0.048 ± 0.52
MDNGTESPLE	1.15 ± 0.72
TGDIISRSLSASIEQNFSSN	0.443 ± 0.2
RFNWSSDLCSFKTPLSKHVG	0.258 ± 0.41
SWLWSCSCLRVAMLTT	inactive
GVSMNSFLICDFDIWQIKTR	-0.162 ± 0.22
TNELCMYCLGHLGY	0.694 ± 0.84
YRPLVTPALSLTLNRFKVDV	0.187 ± 0.35
DNTHSSFIHFETGKKYYA	0.319 ± 0.78
